Test [1] deals with HaloTag7 C61S single mutant (UniProt P0A3G2). Description: SDS-PAGE gel shift assay. On the technique in general: In EMSA bound probe runs differently from free probe, usually more slowly.
Test [2] deals with HaloTag7 C262S single mutant (UniProt P0A3G2). Kind of test: SDS-PAGE gel shift assay.

For orientation: stoichiometry N means a count of units in the complex or per binding partner. Turning to “HaloTag7 C61S single mutant (from UniProt P0A3G2 1-293) (enzyme)”, the stoichiometry N in test [1] was determined as 2.

For the substance “HaloTag7 C262S single mutant (from UniProt P0A3G2 1-293) (enzyme)”, the stoichiometry N in test [2] turned out to be 2.
